Our source for the Ka values is US20030232781A1.

The data set deals with T1, CTCF (full-length) (UniProt P49711).
T1 sequence: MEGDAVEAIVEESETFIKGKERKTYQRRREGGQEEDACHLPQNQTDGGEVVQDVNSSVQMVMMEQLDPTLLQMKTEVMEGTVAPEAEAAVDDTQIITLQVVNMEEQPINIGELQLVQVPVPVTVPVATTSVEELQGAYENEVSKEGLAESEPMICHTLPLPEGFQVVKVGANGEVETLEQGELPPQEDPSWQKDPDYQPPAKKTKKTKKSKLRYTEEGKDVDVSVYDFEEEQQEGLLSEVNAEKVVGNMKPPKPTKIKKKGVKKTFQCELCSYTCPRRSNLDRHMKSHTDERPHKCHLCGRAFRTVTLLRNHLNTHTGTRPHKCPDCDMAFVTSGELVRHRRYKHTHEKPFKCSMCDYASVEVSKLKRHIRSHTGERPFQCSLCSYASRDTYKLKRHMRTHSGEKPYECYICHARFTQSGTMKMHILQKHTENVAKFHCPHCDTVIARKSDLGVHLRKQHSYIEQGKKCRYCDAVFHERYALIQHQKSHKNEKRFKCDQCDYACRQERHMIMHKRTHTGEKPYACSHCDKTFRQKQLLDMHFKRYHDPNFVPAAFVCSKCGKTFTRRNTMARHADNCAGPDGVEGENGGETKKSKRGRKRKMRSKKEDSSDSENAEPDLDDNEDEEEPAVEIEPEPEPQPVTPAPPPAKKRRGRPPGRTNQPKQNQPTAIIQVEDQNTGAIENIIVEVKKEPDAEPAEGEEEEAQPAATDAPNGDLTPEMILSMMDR
Briefly: SPR. Conditions: 5mC at all CpG (SssI); at least 1000-fold lower than unmethylated; no stable complexes.

For “CGCGKGGTGGCAG (double strand) [DMD4 methylated]”, the Ka came to 1e+08 M⁻¹. In the case of “CGCGKGGTGGCAG (double strand) [DMD7 methylated]” it was 1e+08 M⁻¹.
